Reference: EP4628097A1 (Innovent Biologics (Suzhou) Co., Ltd., dated 2025)

Tests used:
human VEGF165 [1] = biological target: T1, human VEGF165 (human, UniProt P15692-4 27-191); test: ELISA, relative binding activity; IEX04-012 about 40 mg/mL in F9, 40 C, 1 week
T1 construct: all are put under this molecule; also called VEGF A; VEGFA

human Ang2 [2] = biological target: T2, human Ang2 (human, UniProt O15123 19-496, limits assumed); test: as above
T2 construct: Bought proteins; also called hAng2-biotin; Ang2-Bio (Sino)
T2 sequence (looked up): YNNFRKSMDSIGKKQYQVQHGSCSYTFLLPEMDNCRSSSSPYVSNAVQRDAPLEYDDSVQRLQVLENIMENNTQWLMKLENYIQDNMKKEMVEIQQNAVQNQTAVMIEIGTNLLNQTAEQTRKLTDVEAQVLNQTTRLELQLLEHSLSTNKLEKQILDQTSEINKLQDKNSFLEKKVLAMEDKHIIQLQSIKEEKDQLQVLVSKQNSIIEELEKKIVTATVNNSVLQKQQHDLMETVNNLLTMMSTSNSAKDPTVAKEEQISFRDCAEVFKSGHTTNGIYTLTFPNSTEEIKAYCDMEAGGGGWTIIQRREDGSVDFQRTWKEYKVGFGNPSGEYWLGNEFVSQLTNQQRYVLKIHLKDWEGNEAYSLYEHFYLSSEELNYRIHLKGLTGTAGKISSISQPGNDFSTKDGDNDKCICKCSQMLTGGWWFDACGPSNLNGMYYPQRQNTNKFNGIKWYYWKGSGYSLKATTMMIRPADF

human VEGF165 [3] = biological target: T1, human VEGF165; test: ELISA, relative binding activity; final formula 40 mg/mL, 2-8 C, 6M
human Ang2 [4] = biological target: T2, human Ang2; test: as above
human VEGF165 [5] = biological target: T1, human VEGF165; test: ELISA, relative binding activity; IEX04-012 about 40 mg/mL in F8, 40 C, 0 weeks
human Ang2 [6] = biological target: T2, human Ang2; test: as above
human VEGF165 [7] = biological target: T1, human VEGF165; test: ELISA, relative binding activity; IEX04-012 about 40 mg/mL in F1, 40 C, 2 weeks
human Ang2 [8] = biological target: T2, human Ang2; test: as above
human VEGF165 [9] = biological target: T1, human VEGF165; test: ELISA, relative binding activity; 120 mg/mL formula, 40 C, 2W
human Ang2 [10] = biological target: T2, human Ang2; test: as above
human VEGF165 [11] = biological target: T1, human VEGF165; test: ELISA, relative binding activity; IEX04-012 about 40 mg/mL in F10, 40 C, 1 week
human Ang2 [12] = biological target: T2, human Ang2; test: as above
human Ang2 [13] = biological target: T2, human Ang2; test: ELISA, relative binding activity; 120 mg/mL formula, 2-8 C, 6M
human VEGF165 [14] = biological target: T1, human VEGF165; test: ELISA, relative binding activity; final formula 40 mg/mL, 40 C, 4W
human VEGF165 [15] = biological target: T1, human VEGF165; test: ELISA, relative binding activity; 150 mg/mL formula, T0
human Ang2 [16] = biological target: T2, human Ang2; test: as above
human VEGF165 [17] = biological target: T1, human VEGF165; test: ELISA, relative binding activity; IEX04-012 about 40 mg/mL in F5, 40 C, 1 week
human Ang2 [18] = biological target: T2, human Ang2; test: as above
human VEGF165 [19] = biological target: T1, human VEGF165; test: ELISA, relative binding activity; IEX04-012 about 40 mg/mL in F6, 40 C, 0 weeks
human Ang2 [20] = biological target: T2, human Ang2; test: as above
human VEGF165 [21] = biological target: T1, human VEGF165; test: ELISA, relative binding activity; IEX04-012 about 40 mg/mL in F2, 40 C, 2 weeks
human Ang2 [22] = biological target: T2, human Ang2; test: as above
human VEGF165 [23] = biological target: T1, human VEGF165; test: ELISA, relative binding activity; IEX04-012 about 40 mg/mL in F9, 40 C, 2 weeks
human Ang2 [24] = biological target: T2, human Ang2; test: as above
human VEGF165 [25] = biological target: T1, human VEGF165; test: ELISA, relative binding activity; final formula 40 mg/mL, 25 C, 1M
human Ang2 [26] = biological target: T2, human Ang2; test: as above

T1 sequence (P15692 other isoform, or with tags, fused parts or gaps limits assumed): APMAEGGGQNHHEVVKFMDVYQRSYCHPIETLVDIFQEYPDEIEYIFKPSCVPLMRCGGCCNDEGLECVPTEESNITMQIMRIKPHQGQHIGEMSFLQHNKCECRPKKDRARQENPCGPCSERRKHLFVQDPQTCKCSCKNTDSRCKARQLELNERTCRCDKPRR

B1: IEX04-012 (bispecific antibody)
chain: DIQLTQSPSSLSASVGDRVTITCSASQDISNYLNWYQQKPGKAPKVLIYFTSSLHSGVPSRFSGSGSGTDFTLTISSLQPEDFATYYCQQYSTVPWTFGCGTKVEIKGGGGSGGGGSGGGGSGGGGSEVQLVESGGGLVQPGGSLRLSCAASGYDFTHYGMNWVRQAPGKCLEWVGWINTYTGEPTYAADFKRRFTFSLDTSKSTAYLQMNSLRAEDTAVYYCAKYPYYYGTSHWYFDVWGQGTLVTVSSGGGGSGGGGSGGGGSEVQLLESGGGLVQPGGSLRLSCAASGFALDYYAIGWFRQAPGKGLEGVSCISSGEGSTYYADSVKGRFTISRDNSKNTVYLQMNSLRAEDTAVYYCATDSRGDDVACEGLRRNEYDYWGQGTLVTVSS
A Relative binding Activity to VEGF (ELISA, %) (human VEGF165 [1]) of 97%, a Relative binding Activity to Ang2 (ELISA, %) (human Ang2 [2]) of 96% and a Relative binding Activity to VEGF A (ELISA, %) (human VEGF165 [3]) of 99% were found for B1 in this work. For the same binder, the Relative binding Activity to Ang2 (ELISA, %) (human Ang2 [4]) was 100%, the Relative binding Activity to VEGF (ELISA, %) (human VEGF165 [5]) was 100% and the Relative binding Activity to Ang2 (ELISA, %) (human Ang2 [6]) was 100%. The Relative binding Activity to VEGF (ELISA, %) (human VEGF165 [7]) was 101%, the Relative binding Activity to Ang2 (ELISA, %) (human Ang2 [8]) was 100% and the Relative binding Activity to VEGF A (ELISA, %) (human VEGF165 [9]) was 113%. It also gave a Relative binding Activity to Ang2 (ELISA, %) (human Ang2 [10]) of 81%, a Relative binding Activity to VEGF (ELISA, %) (human VEGF165 [11]) of 99% and a Relative binding Activity to Ang2 (ELISA, %) (human Ang2 [12]) of 98%. For the same binder, the Relative binding Activity to Ang2 (ELISA, %) (human Ang2 [13]) was 96%, the Relative binding Activity to VEGF A (ELISA, %) (human VEGF165 [14]) was 78% and the Relative binding Activity to VEGF A (ELISA, %) (human VEGF165 [15]) was 92%. The Relative binding Activity to Ang2 (ELISA, %) (human Ang2 [16]) was 103%, the Relative binding Activity to VEGF (ELISA, %) (human VEGF165 [17]) was 98% and the Relative binding Activity to Ang2 (ELISA, %) (human Ang2 [18]) was 82%. For the same binder, the Relative binding Activity to VEGF (ELISA, %) (human VEGF165 [19]) was 100%, the Relative binding Activity to Ang2 (ELISA, %) (human Ang2 [20]) was 100% and the Relative binding Activity to VEGF (ELISA, %) (human VEGF165 [21]) was 99%. For the same binder, the Relative binding Activity to Ang2 (ELISA, %) (human Ang2 [22]) was 102%, the Relative binding Activity to VEGF (ELISA, %) (human VEGF165 [23]) was 99% and the Relative binding Activity to Ang2 (ELISA, %) (human Ang2 [24]) was 90%. It also gave a Relative binding Activity to VEGF A (ELISA, %) (human VEGF165 [25]) of 98% and a Relative binding Activity to Ang2 (ELISA, %) (human Ang2 [26]) of 93%.
